Measurements from publication PMC8905165, “Reconstitution of an active human CENP-E motor” (Open Biology, 2022).

How the values were obtained:
[1] = target: the molecule itself; assay: single-molecule photobleaching step counting and initial intensity analysis (TIRF); 0.5 nM fluorescently tagged motor adsorbed non-specifically to silanized coverslips, BRB80 with oxygen scavenger mix, 30°C; monomer to dimer
[2] = target: the molecule itself; assay: native gel or EMSA; native PAGE of purified CENP-E483-2mNeon; monomer to dimer

Protein	binding result [1]	stoichiometry N [2]
CENP-E754-2mNeon (domain or fragment, human, UniProt Q02224 1-754, looked up, human CENP-E, N-terminal truncation with the motor domain and five predicted coiled-coils of the native stalk, ending at residue 754; The methods call it a dimeric motor; the self-association row is of one chain with another; also called truncated CENP-E; source: Sf9 cells (baculovirus), purified (HisTrap, Superose 6); not shown: mNeonGreen (2 x tandem), C-terminal, kept) MAEEGAVAVCVRVRPLNSREESLGETAQVYWKTDNNVIYQVDGSKSFNFDRVFHGNETTKNVYEEIAAPIIDSAIQGYNGTIFAYGQTASGKTYTMMGSEDHLGVIPRAIHDIFQKIKKFPDREFLLRVSYMEIYNETITDLLCGTQKMKPLIIREDVNRNVYVADLTEEVVYTSEMALKWITKGEKSRHYGETKMNQRSSRSHTIFRMILESREKGEPSNCEGSVKVSHLNLVDLAGSERAAQTGAAGVRLKEGCNINRSLFILGQVIKKLSDGQVGGFINYRDSKLTRILQNSLGGNAKTRIICTITPVSFDETLTALQFASTAKYMKNTPYVNEVSTDEALLKRYRKEIMDLKKQLEEVSLETRAQAMEKDQLAQLLEEKDLLQKVQNEKIENLTRMLVTSSSLTLQQELKAKRKRRVTWCLGKINKMKNSNYADQFNIPTNITTKTHKLSINLLREIDESVCSESDVFSNTLDTLSEIEWNPATKLLNQENIESELNSLRADYDNLVLDYEQLRTEKEEMELKLKEKNDLDEFEALERKTKKDQEMQLIHEISNLKNLVKHAEVYNQDLENELSSKVELLREKEDQIKKLQEYIDSQKLENIKMDLSYSLESIEDPKQMKQTLFDAETVALDAKRESAFLRSENLELKEKMKELATTYKQMENDIQLYQSQLEAKKKMQVDLEKELQSAFNEITKLTSLIDGKVPKDLLCNLELEGKITDLQKELNKEVEENEALREEVILLSELKSLPS	binds	
CENP-E483-2mNeon (domain or fragment, human, UniProt Q02224 1-483, looked up, human CENP-E, N-terminal truncation with the motor domain and the first predicted coiled-coil (334-401), ending at residue 483; the start at residue 1 is printed only for the ColabFold input (1-483); Codon-optimised synthetic gene in pFastBac1; A mixture of monomers and dimers in solution; also called truncated human CENP-E; minimal human CENP-E motor; source: Sf9 cells (baculovirus), purified …) MAEEGAVAVCVRVRPLNSREESLGETAQVYWKTDNNVIYQVDGSKSFNFDRVFHGNETTKNVYEEIAAPIIDSAIQGYNGTIFAYGQTASGKTYTMMGSEDHLGVIPRAIHDIFQKIKKFPDREFLLRVSYMEIYNETITDLLCGTQKMKPLIIREDVNRNVYVADLTEEVVYTSEMALKWITKGEKSRHYGETKMNQRSSRSHTIFRMILESREKGEPSNCEGSVKVSHLNLVDLAGSERAAQTGAAGVRLKEGCNINRSLFILGQVIKKLSDGQVGGFINYRDSKLTRILQNSLGGNAKTRIICTITPVSFDETLTALQFASTAKYMKNTPYVNEVSTDEALLKRYRKEIMDLKKQLEEVSLETRAQAMEKDQLAQLLEEKDLLQKVQNEKIENLTRMLVTSSSLTLQQELKAKRKRRVTWCLGKINKMKNSNYADQFNIPTNITTKTHKLSINLLREIDESVCSESDVFSNTLDTLSEIE		2
